Article doi:10.1101/2023.04.20.537738 (bioRxiv, 2023)

Biological target: SARS-CoV-2 (WA-1) Spike receptor binding domain (RBD)-mouse Fc fusion protein (SARS-CoV-2, UniProt P0DTC2)
Assay: flow cytometry on cells

B1: FG-10A3 (Family G clone 10A3) human anti-SARS-CoV-2 Spike RBD neutralizing monoclonal antibody (antibody, V domains shown)
VH: QVQLVESGGGVVQPGRSLRLSCAASGFTFSSYGMNWVRQAPGKGLEWVAIIWYDGNNTYYVDSVKGRFTISRDNSKNTLYLQMNSLRAEDTAVYYCARKDGSKTYYGYYFDYWGQGTLVTVSS
VL: DIQMTQSPSSLSASVGDRVTITCRASQSIHSFLNWYQQKPGKPPNLLIYAASSLQSGLPSRFSGSGSGTDFTLTISSLQPEDFATYYCQQSYITPPTFGHGTKVEIK
binding result: binds
